According to article PMC10445733:

Tests used:
Assay in all cases: GST pulldown (co-precipitation), anti-HA western blot band quantification
[1] = biological target: ESCRT-I complex: GST–TSG101 (m6) + Myc–VPS28 + HA–VPS37D (m12); conditions: input 1%, value = UMAD1 pulldown band intensity / input band intensity, parent: 0.3
[2] = biological target: ESCRT-I complex: GST–TSG101 (m6) + Myc–VPS28 + HA–VPS37B (m10); conditions: input 1%, value = UMAD1 pulldown band intensity / input band intensity, parent: 2.4
[3] = biological target: ESCRT-I complex: GST–TSG101 (m6) + Myc–VPS28 + HA–VPS37C (m11); conditions: input 1%, value = UMAD1 pulldown band intensity / input band intensity, parent: 2.1

Substance: HA–UMAD1 (from UniProt C9J7I0) V89A; P90A; F91A
- response ([1]; 293T cells co-transfected with GST–TSG101, Myc–VPS28, HA–VPS37D and HA–UMAD1 M1): 0
- response ([2]; 293T cells co-transfected with GST–TSG101, Myc–VPS28, HA–VPS37B and HA–UMAD1 M1): 0
- response ([3]; 293T cells co-transfected with GST–TSG101, Myc–VPS28, HA–VPS37C and HA–UMAD1 M1): 0

Substance: HA–UMAD1 (from UniProt C9J7I0) Y125A
- response ([1]; 293T cells co-transfected with GST–TSG101, Myc–VPS28, HA–VPS37D and HA–UMAD1 M2): 0
- response ([2]; 293T cells co-transfected with GST–TSG101, Myc–VPS28, HA–VPS37B and HA–UMAD1 M2): 0.4
- response ([3]; 293T cells co-transfected with GST–TSG101, Myc–VPS28, HA–VPS37C and HA–UMAD1 M2): 0.6

Substance: HA–UMAD1 (from UniProt C9J7I0) E130A
- response ([1]; 293T cells co-transfected with GST–TSG101, Myc–VPS28, HA–VPS37D and HA–UMAD1 M4): 0
- response ([2]; 293T cells co-transfected with GST–TSG101, Myc–VPS28, HA–VPS37B and HA–UMAD1 M4): 0.2
- response ([3]; 293T cells co-transfected with GST–TSG101, Myc–VPS28, HA–VPS37C and HA–UMAD1 M4): 0.4

Substance: HA–UMAD1 (from UniProt C9J7I0) F127A
- response ([1]; 293T cells co-transfected with GST–TSG101, Myc–VPS28, HA–VPS37D and HA–UMAD1 M3): 0
- response ([2]; 293T cells co-transfected with GST–TSG101, Myc–VPS28, HA–VPS37B and HA–UMAD1 M3): 1.2
- response ([3]; 293T cells co-transfected with GST–TSG101, Myc–VPS28, HA–VPS37C and HA–UMAD1 M3): 1.2
